Tested on: MS2 coat protein
Experiment: apparent KD of MS2 coat protein; higher = weaker reporter binding
Conditions: Eterna round: R107
How it was run: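 Illumina sequencing clusters served as templates for on-chip transcription of the designed RNA switches. SNAP-549-labelled MS2 coat protein was then titrated in twofold steps from 0.7 or 1.5 nM to 3 µM, allowing 0.8–1.5 h per step at first and 10–20 min per step later. The buffer held 100 mM Tris-HCl pH 7.5, 80 mM KCl and 4 mM MgCl2, without or with constant ligand. Apparent KD is the median per design of normalised cluster binding-curve fits.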

[1] = input ligand: theophylline 20 uM
[2] = input ligand: theophylline 2 mM
[3] = input ligand: tryptophan 2.4 mM

Sequence | apparent KD of MS2 coat protein (input ligand: arginine 13.2 mM) | apparent KD of MS2 coat protein [1] | apparent KD of MS2 coat protein [2] | apparent KD of MS2 coat protein (input ligand: none) | apparent KD of MS2 coat protein [3]
GGGACAUGAGGAUCACCCAUGUACCGGUCCCGAGGACCGGUACGGCCGCCACUCGAUGACCUCAUAGUCUGCCUGAGCAGCAGAC [Abebeti] | 49.1 nM | 96.6 nM | 140 nM | – | –
GGGAGAUGAAUAGAAUGAGAUGACACAGAAGGAGCGUGAAUUAACACAGGUAGGUCGCUGACAACAUGAGGAUCACCCAUGUAUU [Same State Arginine A GF3] | 18.1 nM | 21.3 nM | 19.5 nM | 15.2 nM | 18.9 nM
GGGCAAGGUGCCGCCUUCGCCCACUGAGAAGGAGCGCAGGGUACUGCAGGUAGGUCGCUCAGACAUGAGGAUCACCCAUGUAGGA [Esislees] | 32.4 nM | 89.9 nM | 76 nM | 54.5 nM | 57.6 nM
GGGCCCGGGCCGGAAACGGCCCGGGCCCUGCGAGGACCGGUACGGCCGCCACUCGCUCGAGUGGGUACAUGAGGAUCACCCAUGU [#17 Exclusion Tryptophan A] | 17.7 nM | 45.8 nM | 33.3 nM | 28.4 nM | 31.9 nM
GGGUCGCGUUCGGCCGCCACUUGGAAACAUGAGGAUCACCCAUGUCAUAUGGUGGGACAUGUUGUAAGGACCGGGAACCGUCCUA [theeternabot_exclusion_MS2_Trp_B_11] | 34.6 nM | 82.1 nM | 83.4 nM | – | –
GGGUGCGGCACGGCCGCCACUGCGGUGGUGUGACAUGAGGAUCACCCAUGUUGUCAUGCGGCCCUUAGGACCGGGUGCCGUGCCC [#1 Exclusion - Tryptophan B Attempt #13 (HarryS)] | 39.5 nM | 60.9 nM | 62.4 nM | 33.7 nM | 43.8 nM
GGGUGGUAGGCGGCCGCCACUGAUUUUCAUUCCUGGAUGACAUGAGGAUCACCCAUGUUUACGGGCAGGACCGGGCCUGCUGUGG [aaaW] | 34.8 nM | 68.4 nM | 66.6 nM | – | –
GGGUGUGAUCCGGAUACCAGCGAACAUGAGGAUCACCCAUGUGACCUGAGAUCGGCUCUACGCCCUUGGCAGCCGCGGUCGCAGG [Same State Theophylline B GF13] | 23 nM | 19.5 nM | 15.4 nM | – | 12.4 nM
GGUACAUGAGGAUCACCCAUGUAUGGGUACCGAGGACCGGUACGGCCGCCACUCGCAGGACAUGAGGAUCACCCAUGUGCAACCG [SSTA DOUBLE!!! :-D #11] | 61 nM | 144 nM | 184 nM | 142 nM | 312 nM
GGUCGCCAACAUGGGUCGGUGAAAUGGGAAGGAGCGAGCGAGAGCUCAGGUAGGUCGCCCAAACAUGAGGAUCACCCAUGUAAUA [SSArg-A #28 UUU adds V2] | 21 nM | 113 nM | 74.8 nM | 125 nM | 53.4 nM
GGUCUCGAGAGCGAUACCAGCUUGAUCGUACUGGCCUGGUACAUGAGGAUCACCCAUGUAAGCCCUUGGCAGCGCUCUCGAGACC [#1 Exclusion - Theophylline B Attempt #7 (HarryS)] | 9.53 nM | 15.6 nM | 30.1 nM | 11.4 nM | 14 nM
GGUCUGAAAACCGAUCAAAGAUCGGAAGAUACCAGAGGGUGAUCCCUCCCUUGGCAGCUUCACAUGAGGAUCACCCAUGUAGACC [Omei inspired #BothOrNeither] | 29.3 nM | 188 nM | – | – | 82.5 nM
GGUGGCGGGACUGAUACCAGCCACCACCGAUAGACCACAUGAGGAUCACCCAUGUUGGGUGGCCCUUGGCAGCAGUCUUGCUGCU [#1 Same State - Theophylline B Attempt #13 (HarryS)] | 64.1 nM | 409 nM | – | – | 586 nM
GGUGGCUGGAUCGAUACCAGCCACCACCGAUAGACCACAUGAGGAUCACCCAUGUUGGGUGGCCCUUGGCAGCGGUCCGGCUGCC [#1 Same State - Theophylline B Attempt #7 (HarryS)] | 126 nM | 679 nM | – | – | 759 nM
GGUGGGAGCAACGAUACCAGCUACAUGAGGAUCACCCAUGUGGAAUGGGAGUCAACAGCGAGCCCUUGGCAGCGUUAGACCCAAA [Bebeeserdi] | 13.2 nM | 20.4 nM | 128 nM | 11.3 nM | 11.6 nM
GGUUGAUAUAUAUAUAUAUUGAUUACUGAAGGAGCGGGAAAUAACCCAGGUAGGUCGCAGAGAUCCACAUGAGGAUCACCCAUGU [!0.F] | 31.9 nM | 50.4 nM | 60.5 nM | 42.7 nM | 56.9 nM
GGUUGGUGUGGAGACAUAUUGAUUACUGAAGGAGCGGGAAUAAACCCAGGUAGGUCGCAGAGAUCCACAUGAGGAUCACCCAUGU [!0.P] | 121 nM | 42.8 nM | 41.2 nM | 44.8 nM | 22.4 nM
GUAAUAUACAGAAGGAGCGUGAUAGUGAGCUUGUACAACAUGAGGAUCACCCAUGUAUAAUCACAGGUAGGUCGCUGUAUAGGGU [Arg B SS t2] | 17 nM | 21.9 nM | 15.4 nM | 16.1 nM | 17.8 nM
GUACAUGAGGAUCACCCAUGUAUAGUUGAAGGAGCGACCGGAGGGUCAGGUAGGUCGCAGCACAUGGCGUCAACCCGUGUAUGCC [#1 Exclusion - Arginine A Attempt #25 (Inspired by Pi)] | 15.2 nM | 22.7 nM | 18.5 nM | 17.3 nM | 18.6 nM

Sequence | apparent KD of MS2 coat protein (input ligand: arginine 13.2 mM) | apparent KD of MS2 coat protein [1] | apparent KD of MS2 coat protein [2] | apparent KD of MS2 coat protein (input ligand: none) | apparent KD of MS2 coat protein [3]
GUACAUGAGGAUCACCCAUGUGGUAGGGAUACCAGCCAGAAGAAAGGCCCUUGGCAGCUUGUAUUUAGUGUGGGUUUGUUUGUUC [Exclusion - Theophylline A] | 29 nM | 40.3 nM | – | – | 25.6 nM
GUACCACAGUCGGCCGCCACUAAGUUGUAUUCCAGCAGGACGAAACAUGAGGAUCACCCAUGUCCUAGGACCGGGACUUCCGUCG [theeternabot_sameState_MS2_Trp_B_41] | 16.9 nM | 25.2 nM | 25.6 nM | – | –
GUGUUAUGGUCGGCCGCCACUCUGACAUGAGGAUCACCCAUGUUGUACAUGAGGAUCACCCAUGUGAGGACCGGGACACGUGCGA [Exclusion Tryptophan B GF10] | 203 nM | 363 nM | 476 nM | – | –
UAAAACAUGAGGAUCACCCAUGUAAUUGAUACCAGAGUGAUGAUCCUCCCUUGGCAGCAAAUAACGCAUUGGAAACAAUGCGAAA [Mat - Same State Theophlline A - Mod of Eli - D26] | 51.4 nM | 91.6 nM | – | – | 47.8 nM
UAAAAUAAUAAUGAUACCAGCCCUCCCUCCCGGGACAUGAGGAUCACCCAUGUCUCUCCCGGCCCUUGGCAGCAUAAAUAAUAAU [Same Stare - Theophylline B] | 12.1 nM | 15 nM | – | – | 12.1 nM
UAACAUGAGGAUCACCCAUGUUUAGAAGAACGAGGACCGGUACGGCCGCCACUCGAAAAGUGGAAGAAAAGAGGGAUAGAAUGAU [Same State Trp A GF1] | 14 nM | 16 nM | 12.2 nM | – | –
UAAUAUCACAUAUUAUGGGUGUAAUGUGAUACCAGCUAGGAAACUAGCCCUUGGCAGCACAUGAGGAUCACCCAUGUAAGCUGUA [(T1)'-(M)'-(T1)-(T2)-(M1)-(M2)-(T2)'_Design4_2/19/17] | 29.1 nM | 123 nM | – | – | 68.9 nM
UAAUGUGAGAGAAGGAGCGGAAGUCUCGUUACAACAUGAGGAUCACCCAUGUAACGUACAGUCCAGGUAGGUCGCUCUCGGGCGC [pqacmullin] | 16.9 nM | 21.4 nM | 18.1 nM | 14.8 nM | 15.5 nM
UACAUGAGGAUCACCCAUGUCUGAACUGAAGGAGCGCUAAAUAAGGCAGGUAGGUCGCGGAAUUUUGUGUGCAUAUGCAUAUGGG [9.L] | 34.5 nM | 39.4 nM | 37.9 nM | 36.4 nM | 38.2 nM
UAGCGAUCUCGUUAAAGGAUCCCAUUUGAUACCAGAGAACUUUGCCUCCCUUGGCAGCAAGUGACAUGAGGAUCACCCAUGUUGA [theeternabot_exclusion_MS2_Theo_A_3] | 16.4 nM | 20 nM | – | – | 16.4 nM
UAGUUGCUGACGGCCGCCACUAGAACAUGAGGAUCACCCAUGUAUUCUAGUGGACAUGGGUGGACUAGGACCGGGUCAGCAACAU [(Trp1)-(Ms2)-(T)'-(M)'-(Trp2)_Design9] | 21 nM | 37.8 nM | 21 nM | 20.6 nM | 30.8 nM
UAUAGUACCAGACAUGAGGAUCACCCAUGUCGAGGACCGGUACGGCCGCCACUCGGCAGUUUGCGUCCUCAGGUACUCCGGGUCA [Larisotexe] | 17.6 nM | 28.3 nM | 26.1 nM | – | –
UAUAUAGAUGGACGUCAUCUAGAUGCAGAAGGAGCGUAGGAAACUACAGGUAGGUCGCUGAGGUACAUGAGGAUCACCCAUGUAG [SSArg A #21 Slice of Pi] | 22.7 nM | 28.8 nM | 27 nM | 18.9 nM | 21.5 nM
UAUAUUGUGAUGGAUACCAGCAGAGAAAACGUUUAUCCUAACAUGAGGAUCACCCAUGUAUGCCCUUGGCAGCUGUUGUGGUAUA [8.P] | 34.7 nM | 55.3 nM | – | – | 38.6 nM
UAUCCACAUGAGGAUCACCCAUGUAGGGAAGGAGCGGUGAUUUCACCAGGUAGGUCGCCUUGCUCAGGGUUGCCGGUGGAAUCGU [Exclusion - Arginine A (Freestyle 34)] | 24.9 nM | 19.7 nM | 13.3 nM | 12.7 nM | 9.73 nM
UAUCCACAUGAGGAUCACCCAUGUUAGGAAGGAGCGGUGGAUGCACCAGGUAGGUCGCCUAGCUGAGGACUGUCGGUGGAUUCGU [Exclusion - Arginine A (Freestyle 21)] | 56.5 nM | 92.1 nM | 131 nM | 86.5 nM | 94.9 nM
UAUCGUCAGACGGCCGCCACUAGAACAUGAGGAUCACCCAUGUACUAGUGGCAUACCUCAUGAACUAGGACCGGGUCUGACGAAU [(Trp1)-(Ms2)-(T)'-(M)'-(Trp2)_Design10] | 10.2 nM | 11.8 nM | 10.2 nM | – | –
UAUUUGGUGCGCGAGUGUUGGAUAAUUGAUACCAGUGAAGAAGAGCGCCCUUGGCAGCGAAUCCUAACAUGAGGAUCACCCAUGU [5.T] | 35.9 nM | 55.3 nM | – | – | 35.4 nM
